{"source": "patent US10233249B2", "about": "“Antibodies and methods for treating estrogen receptor-associated diseases” (BEIJING SHENOGEN PHARMA GROUP LTD., priority 2013, dated 2019)", "key": {"K562 cells": {"test_system": "K562 cells", "assay": "Internalization analysis by surface fluorescence quenching (FACS)", "type": "cell-based, human", "details": "37° C., peak by 24 hours", "description": "The % internalization=(Qn-Qo)/(Nn-Qo); Qn=MFI (Mean Fluorescence Intensity) for a sample at a specific time point, after quench; Nn=MFI for a sample taken at a specific time point, no quench; Qo=MFI for sample incubated only on ice at 0 hour, after quench.\nAs the development of antibody drug conjugate relies on the carrier antibody to be internalized to deliver the chemotherapeutic agent into the tumor cells, the ability of SNGmB1 being internalized by K-562 cells was also assessed.\nK562 cells were first cultured in normal IMDM medium for 24 hours. On the second day, the cells are collected by centrifugation and washed once with warm PBS, followed by resuspending into culture medium with IMDM without phenol red (Gibco) supplemented with 2.5% charcoal-stripped FBS (Gibo) without phenol red. After culturing for 48 hours, the cells were collected and centrifuged for 5 minutes at 1000 rpm. The cells were then incubated with AlexaFluro488-labelled anti-ER-α36 antibody SNGmB1 37° C. for different time (1, 2, 4, 6, 24 hours) to allow internalization to occur. The internalization was stopped by putting the cells on ice. Antibody internalization analysis of SNGmB1 by K562 cells was performed by surface fluorescence quenching and measured by MFI as detected by FACS. An anti-anti-AlexaFluro488 antibody was used to quench the AlexaFluro488-labeled SNGmB1 antibody bound on the K562 cell surface."}, "[1]": {"target": "T1, biotinylated GV27 peptide (ER-α36) (Homo sapiens, UniProt P03372)", "T1 sequence (P03372 284-310 isoform P03372-4 limits assumed)": "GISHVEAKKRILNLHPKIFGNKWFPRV", "assay": "Competition ELISA", "type": "binding", "description": "The antigen (biotinylated GV27 peptide) was added along with different amount of the competing mouse antibody, the ELISA plates were then allowed to incubate for equilibrium before wash. Streptavidin-HRP (Sigma, S2438, 1:5000) and TMB substrate (Biopanda, China) were added and OD450 was measured on a plate reader. IgG were tested in parallel as control antibody."}, "[2]": {"test_system": "4T1-ER-α36 positive cells", "assay": "4T1-ER-α36 lung tumor metastasis model", "type": "in vivo, nude mice", "description": "FACS-sorted 4T1-ER-α36 positive cells (ATCC) (5*10^4) were injected in the nude mice via tail vein. Average 20 mg/kg body SNGmB1 or control IgG (20 mg/kg body weight) was administered by tail vein injection every 3 or 4 days for 18 days, and tamoxifen (1 mg/kg body weight) was intragastric administrated synchronously. […] Representative immunohistochemical images showing ALDH1 in lung metastatic foci with tamoxifen administrated tumor-bearing nude mice respectively after control IgG and SNGmB1 antibody treatment. Hematoxylin was used for counterstaining. Seen from FIG. 26a and FIG. 26b, it is illustrated that ALDH1 is decreased after SNGmB1 injection. scale bars 50 μm."}, "[3]": {"target": "T2, ER-α36 expressed on cell surfaces of K562 cells (Homo sapiens, UniProt P03372)", "T2 construct": "endogenous in cells; host or cells: K562, MCF7, SKBR3, MHCC97H", "T2 sequence (P03372 1-310 isoform P03372-4)": "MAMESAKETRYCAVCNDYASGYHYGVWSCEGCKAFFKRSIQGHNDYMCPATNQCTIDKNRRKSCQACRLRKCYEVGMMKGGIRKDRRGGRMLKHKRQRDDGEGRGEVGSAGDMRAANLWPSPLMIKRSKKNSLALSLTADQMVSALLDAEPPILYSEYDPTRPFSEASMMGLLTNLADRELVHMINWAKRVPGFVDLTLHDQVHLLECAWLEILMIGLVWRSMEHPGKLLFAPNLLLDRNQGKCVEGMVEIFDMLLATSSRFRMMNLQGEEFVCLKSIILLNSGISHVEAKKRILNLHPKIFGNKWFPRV", "assay": "FACS analysis of binding to cell surface ER-α36", "details": "100, 20, 4, 0.8, 0.16, 0.032 μg/ml; mouse IgG2b isotype control", "description": "(§1) Also examined were the binding of SNGmB1 to a series of human cancer cell lines including K-562 cell, a cell line derived from chronic myeloid leukemia patient; MCF7: a breast cancer cell line expressing both ER-α66 and ER-α36; SKBR3 (ATCC): a breast cancer cell line expressing high levels of HER2; and MHCC97H (ATCC): a highly metastatic hepatocellular carcinoma cell line.\n(§2) These cell lines (K562, MCF7, SKBR3, MHCC97H) were cultured in their respective medium to 90% confluence and then the cells were washed with PBS, followed by pretreatment with 0.5 mM EDTA (adherent cell lines) to facilitate removal from substrate. The cells are then collected and centrifuged at 2500 rpm for 5 minutes at 4° C. After counting the cell number, the cells were then resuspended in the block buffer (10% normal goat serum, Invitrogen) to a final concentration of 5-10×10^6 cells/ml, and 100 μl of cells (5×10^5) were transferred to a 1.5 ml EP tube for staining. All those tubes (cells in block buffer) were then laid in a revolver (Grant) for 30 minutes at 4° C. After that the cells were centrifuged at 2500 rpm for 5 minutes at 4° C., the supernatant was discarded, 100 μl of the primary antibody was then added to (1-30 μg/ml final concentration, SNGmB1 or mouse IgG2b isotope control) and incubated in a revolver at 4° C. for 1 hr. The cells were then collected by centrifugation at 2500 rpm for 5 minutes at 4° C. and washed 2 times with PBS solution. The goat anti mouse IgG (H+L) FITC secondary antibody (Invitrogen) were then added at a dilution range of 1:400-800 followed by incubation in a revolver at 4° C. for 1 hr and kept in dark. Following this incubation, free antibody was the removed by washing the cells twice with PBS and the cells were then fixed in 1% paraformaldehyde at room temperature for 10 min and before resuspending the cells in 200-400 μl PBS with 5 μl 7-AAD (BD Biosciences) added for final flow cytometric analysis.\n(§3) In FIG. 5A, the “Geom. Mean” refers to Geometric mean fluorescence intensity. […] The cell line was incubated with the SNGmB1 antibody and the binding was tested, according to the similar procedure described above. Mouse IgG2b was used as isotype control."}, "[4]": {"target": "T3, ER-α36 expressed on cell surfaces of SKBR3 cells (Homo sapiens, UniProt P03372)", "T3 construct": "endogenous in cells; host or cells: K562, MCF7, SKBR3, MHCC97H", "T3 sequence (P03372 1-310 isoform P03372-4)": "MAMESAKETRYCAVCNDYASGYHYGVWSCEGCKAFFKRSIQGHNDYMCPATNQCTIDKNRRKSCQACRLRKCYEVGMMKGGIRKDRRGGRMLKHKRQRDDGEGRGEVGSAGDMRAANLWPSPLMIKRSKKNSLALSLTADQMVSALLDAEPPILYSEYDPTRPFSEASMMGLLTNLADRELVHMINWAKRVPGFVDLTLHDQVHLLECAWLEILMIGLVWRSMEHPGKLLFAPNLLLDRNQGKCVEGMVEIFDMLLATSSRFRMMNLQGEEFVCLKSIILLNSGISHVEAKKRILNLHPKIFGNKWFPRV", "assay": "FACS analysis of binding to cell surface ER-α36", "details": "mouse IgG2b isotype control", "description": "as §1, §2, §3"}, "[5]": {"target": "T4, ER-α36 expressed on cell surfaces of MCF7 cells (Homo sapiens, UniProt P03372)", "T4 construct": "endogenous in cells; host or cells: K562, MCF7, SKBR3, MHCC97H", "T4 sequence (P03372 1-310 isoform P03372-4)": "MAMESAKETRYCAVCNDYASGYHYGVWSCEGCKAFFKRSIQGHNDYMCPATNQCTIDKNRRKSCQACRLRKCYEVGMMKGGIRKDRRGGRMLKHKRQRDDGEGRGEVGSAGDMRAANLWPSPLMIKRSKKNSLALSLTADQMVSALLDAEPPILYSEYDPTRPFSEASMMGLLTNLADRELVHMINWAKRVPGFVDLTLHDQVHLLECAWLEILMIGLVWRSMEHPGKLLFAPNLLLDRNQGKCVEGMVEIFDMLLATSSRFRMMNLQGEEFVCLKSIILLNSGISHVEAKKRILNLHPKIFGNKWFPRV", "assay": "FACS analysis of binding to cell surface ER-α36", "details": "mouse IgG2b isotype control", "description": "as §1, §2, §3"}, "[6]": {"target": "T5, ER-α36 expressed on cell surfaces of MHCC97H cells (Homo sapiens, UniProt P03372)", "T5 construct": "endogenous in cells; host or cells: K562, MCF7, SKBR3, MHCC97H", "T5 sequence (P03372 1-310 isoform P03372-4)": "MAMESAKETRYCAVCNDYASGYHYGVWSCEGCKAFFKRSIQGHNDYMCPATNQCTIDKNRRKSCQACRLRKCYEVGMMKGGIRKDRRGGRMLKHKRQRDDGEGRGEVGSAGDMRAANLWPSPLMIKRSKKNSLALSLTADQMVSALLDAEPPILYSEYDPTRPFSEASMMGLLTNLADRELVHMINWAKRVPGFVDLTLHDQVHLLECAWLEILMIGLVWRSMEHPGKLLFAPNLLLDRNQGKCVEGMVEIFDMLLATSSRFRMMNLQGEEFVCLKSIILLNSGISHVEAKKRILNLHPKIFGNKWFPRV", "assay": "FACS analysis of binding to cell surface ER-α36", "details": "mouse IgG2b isotype control", "description": "as §1, §2, §3"}}}
{"molecule": "SNGmB1: mouse monoclonal anti-ER-α36 antibody (mIgG2b), light chain SEQ ID NO: 16, heavy chain SEQ ID NO: 18 (antibody, listed as Mus musculus) heavy: QAYLQQSGAELVRPGASVKMSCKASGYTFTSHNMHWIKQTPRQGLEWIGAIHPVNGDTAYNQKFKGKATLTVDKSSSTAYLQLSSLTSEESAVYFCAREGYGSVDYWGQGTTLTVSSAKTTPPSVYPLAPGCGDTTGSSVTLGCLVKGYFPESVTVTWNSGSLSSSVHTFPALLQSGLYTMSSSVTVPSSTWPSQTVTCSVAHPASSTTVDKKLEPSGPISTINPCPPCKECHKCPAPNLEGGPSVFIFPPNIKDVLMISLTPKVTCVVVDVSEDDPDVQISWFVNNVEVHTAQTQTHREDYNSTIRVVSTLPIQHQDWMSGKEFKCKVNNKDLPSPIERTISKIKGLVRAPQVYILPPPAEQLSRKDVSLTCLVVGFNPGDISVEWTSNGHTEENYKDTAPVLDSDGSYFIYSKLNMKTSKWEKTDSFSCNVRHEGLKNYYLKKTISRSPGK light: ETTVTQSPASLSMTIGEKVTIRCITSTDIDDDMNWYRKKPGQPPKLLISEGNTLRPGVPSRFSSSGYGTDFVFTIENMLSEDVADYYCLQSDNLPLTFGAGTKLELKRADAAPTVSIFPPSSEQLTSGGASVVCFLNNFYPKDINVKWKIDGSERQNGVLNSWTDQDSKDSTYSMSSTLTLTKDEYERHNSYTCEATHKTSTSPIVKSFNRNEC", "values": [{"measurement": "percentage of internalized antibody (of the bound antibody)", "setting": "K562 cells", "value": "~75", "unit": "%"}, {"measurement": "competition with SNGmB1 antibody for binding to GV27 peptide / ER-α36", "setting": "[1]", "value": "compete against SNGmB1 antibody"}, {"measurement": "metastasis of lung tumor", "setting": "[2]; nude mice, 20 mg/kg by tail vein every 3 or 4 days for 18 days, with tamoxifen 1 mg/kg", "value": "prevents the metastasis of lung tumor"}, {"measurement": "ALDH1 in lung metastatic foci (immunohistochemistry)", "setting": "[2]; tamoxifen administrated tumor-bearing nude mice, versus control IgG", "value": "decreased"}, {"measurement": "binding to K562 cells (FACS)", "setting": "[3]", "value": "dose-dependent binding"}, {"measurement": "binding to SKBR3 cells (FACS)", "setting": "[4]", "value": "specific binding"}, {"measurement": "binding to MCF7 cells (FACS)", "setting": "[5]", "value": "specific binding"}, {"measurement": "binding to MHCC97H cells (FACS)", "setting": "[6]", "value": "specific binding"}]}
